In the series the target is EGFR antigen (epidermal growth factor receptor) (UniProt P00533 25-645). The series can be described thus: electrochemical aptasensor (CV/DPV); aptamer on NH2-GO/THI/AuNP paper electrode; linear range 0.05-200 ng/mL, LOD 5 pg/mL (not a Kd); Aptamer on NH2-GO/THI/AuNP electrode, mercaptoethanol block, wash in TE (10 mM Tris-HCl, 1 mM EDTA; TE stock pH 8.0); binding buffer and temperature not given in the material. Particulars: protein: commercial.

B1: anti-EGFR aptamer (ssDNA)
DNA: TACCAGTGCGATGCTCAGTGCCGTTTCTTCTCTTTCGCTTTTTTTGCTTTTGAGCATGCTGACGCATTCGGTTGAC
modifications: 5'-thiol
Regarding B1, the binding result was “binds”.
